Measurements: patent publication US9274110B2, “Diagnosis method of active tuberculosis” (priority 2011, dated 2016)

Columns and labels:
[1] = Activity of rLipC or cutinase on p-nitrophenyl esters (release of p-NP at 410 nm); assay type: biochemical; details: for Specific Activity, pNP-butyrate (C4): substrate pNP-butyrate (C4); for Specific Activity, pNP-butyrate (C4) / Specific Activity, pNP-caprate (C10) / Specific Activity, pNP-caprylate (C8) / Specific Activity, pNP-laurate (C12) / Specific Activity, pNP-myristate (C14) / Specific Activity, pNP-valerate (C5): 1 mM, Tris buffer pH 8.0, 300 mM NaCl, 4 mM NaTDC, 15 min; for Specific Activity, pNP-caprate (C10): substrate pNP-caprate (C10); for Specific Activity, pNP-caprylate (C8): substrate pNP-caprylate (C8); for Specific Activity, pNP-laurate (C12): substrate pNP-laurate (C12); for Specific Activity, pNP-myristate (C14): substrate pNP-myristate (C14); for Specific Activity, pNP-valerate (C5): substrate pNP-valerate (C5)
[2] = pH-stat, fluorescent and spectrophotometric assays for lipase or phospholipase activity on various lipids; assay type: biochemical
Source text: rLipC activity was also investigated using pH-stat, fluorescent and spectrophotometric assays for various lipids, as well as phospholipids, to detect lipase or phospholipase activity, respectively.

Molecule: Cutinase F. solani: cutinase from F. solani, comparison enzyme [reference compound]
- Specific Activity, pNP-butyrate (C4) [1]: 382 ± 22 U · mg^−1
- Specific Activity, pNP-caprate (C10) [1]: 9 ± 1 U · mg^−1
- Specific Activity, pNP-caprylate (C8) [1]: 14 ± 3 U · mg^−1
- Specific Activity, pNP-laurate (C12) [1]: 1 ± 0.4 U · mg^−1
- Specific Activity, pNP-myristate (C14) [1]: 1 ± 0.2 U · mg^−1
- Specific Activity, pNP-valerate (C5) [1]: 78 ± 0.5 U · mg^−1

B1: Rv0220: M. tuberculosis Lip family protein Rv0220 (LipC), recombinant; shown not to be a lipolytic enzyme (protein, UniProt P96402 1-403, looked up)
Esterase LipC: MNQRRAAGSTGVAYIRWLLRARPADYMLALSVAGGSLPVVGKHLKPLGGVTAIGVWGARHASDFLSATAKDLLTPGINEVRRRDRASTQEVSVAALRGIVSPDDLAVEWPAPERTPPVCGALRHRRYVHRRRVLYGDDPAQLLDVWRRKDMPTKPAPVLIFVPGGAWVHGSRAIQGYAVLSRLAAQGWVCLSIDYRVAPHHRWPRHILDVKTAIAWARANVDKFGGDRNFIAVAGCSAGGHLSALAGLTANDPQYQAELPEGSDTSVDAVVGIYGRYDWEDRSTPERARFVDFLERVVVQRTIDRHPEVFRDASPIQRVTRNAPPFLVIHGSRDCVIPVEQARSFVERLRAVSRSQVGYLELPGAGHGFDLLDGARTGPTAHAIALFLNQVHRSRAQFAKEVI
- Specific Activity, pNP-butyrate (C4) [1]: 133 × 10^−3 U · mg^−1
- Specific Activity, pNP-caprate (C10) [1]: 2 × 10^−3 U · mg^−1
- Specific Activity, pNP-caprylate (C8) [1]: 22 × 10^−3 U · mg^−1
- Specific Activity, pNP-laurate (C12) [1]: 0 U · mg^−1
- Specific Activity, pNP-myristate (C14) [1]: 0 U · mg^−1
- Specific Activity, pNP-valerate (C5) [1]: 111 × 10^−3 U · mg^−1
- Hydrolysis of esters function associated with a fatty acyl chain having more than 10 carbons ([1]; summary of Table 1): not able to hydrolyse
- Long-chain triglycerides (TG) hydrolysis ([2]; cloned and characterized protein, see example 1): no long-chain triglycerides (TG) hydrolysis was detected
- Activity on triglycerides, diglycerides or monoglycerides as substrate ([2]; pH-stat, fluorescent and spectrophotometric assays, whatever the carbon chain length): does not show any activity
